Measured values reported in article doi:10.1101/2020.11.08.373522, “The DEAD-box RNA helicase Ded1 from yeast is associated with the signal recognition particle (SRP), and its enzymatic activity is regulated by SRP21” (bioRxiv, 2020).

T1: Recombinant His-tagged SRP21 (S. cerevisiae, UniProt P32342 1-167)
T1 construct: SRP21 of the yeast signal recognition particle; subcloned into the NdeI and XhoI sites of pET22b; source: E. coli Rosetta (DE3), pET22b, purified (Ni-NTA)
T1 sequence (looked up): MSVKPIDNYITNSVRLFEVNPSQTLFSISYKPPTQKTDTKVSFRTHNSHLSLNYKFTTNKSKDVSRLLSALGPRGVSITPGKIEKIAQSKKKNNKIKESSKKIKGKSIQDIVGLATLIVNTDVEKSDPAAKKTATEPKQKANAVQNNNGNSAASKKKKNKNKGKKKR


Tests used:
Conditions in all cases: both partners purified
Recombinant Ded1-His [1] = biological target: T2, Recombinant Ded1-His (S. cerevisiae, UniProt P06634 1-604); assay: co-IP; purified Ded1 (4 µg) with one purified SRP protein (4-6 µg), no RNA, 300 µl 1X PBS with 2 mM MgCl2, 45 min at 30°C; recovered with Ded1-specific IgG cross-linked to protein A-Sepharose beads, 1 h at 18°C; 12% SDS-PAGE, Coomassie blue
T2 construct: Ded1, DEAD-box RNA helicase of budding yeast, wild type, recombinant; also called purified Ded1

Recombinant Ded1-His [2] = biological target: T2, Recombinant Ded1-His; assay: co-IP; as a3 but purified Ded1 with combinations of purified SRP proteins (SRP21 with SRP14; SRP54 with Sec65; SRP14, SRP21, SRP54 and Sec65 together); recovered with Ded1-specific IgG on protein A-Sepharose beads; SDS-PAGE, Coomassie blue
[3] = biological target: T1, Recombinant His-tagged SRP21; assay: as above

T2 sequence (P06634 whole entry): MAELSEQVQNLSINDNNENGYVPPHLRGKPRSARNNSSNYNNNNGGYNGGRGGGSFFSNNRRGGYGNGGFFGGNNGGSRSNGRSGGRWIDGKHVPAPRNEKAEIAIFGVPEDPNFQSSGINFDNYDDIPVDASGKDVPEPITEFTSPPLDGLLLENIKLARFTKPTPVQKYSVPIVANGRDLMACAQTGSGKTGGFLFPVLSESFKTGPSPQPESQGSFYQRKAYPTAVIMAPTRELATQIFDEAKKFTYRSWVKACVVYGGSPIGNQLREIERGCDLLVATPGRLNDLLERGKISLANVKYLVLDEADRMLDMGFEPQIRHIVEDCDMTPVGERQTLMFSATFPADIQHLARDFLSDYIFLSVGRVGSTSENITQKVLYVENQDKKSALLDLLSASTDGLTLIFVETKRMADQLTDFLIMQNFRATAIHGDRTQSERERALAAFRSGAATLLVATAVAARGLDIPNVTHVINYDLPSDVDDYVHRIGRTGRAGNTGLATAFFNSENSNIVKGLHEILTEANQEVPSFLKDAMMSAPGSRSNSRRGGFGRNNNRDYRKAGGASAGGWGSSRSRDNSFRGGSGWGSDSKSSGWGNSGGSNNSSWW

binding result (Recombinant Ded1-His [1])	binding result (Recombinant Ded1-His [2])	binding result [3]	Binder
binds	–	–	Recombinant His-tagged Sec65 (natural protein, S. cerevisiae, UniProt P29478 1-273, looked up, Sec65 of the yeast signal recognition particle; source: E. coli Rosetta (DE3), pET19b, purified (Ni-NTA)) MPRLEEIDDFNDIDDLDMELAELDPSLRTPIAPKITPKVVRSQDQENPAFLPGTNNNSNSNNNSSNEKEQLSFINPKTGKVERSEAISKKDLEEVKRFQVLYPCYFDINRSHKEGRRVPKELAVENPLAKTMADAVRELGILCIFEGEKCHPQDFGNPGRIRVLFKENGQLIGAATKFKGGKRQLMKAVGEYMKRHPTTIESLREIPYGPDFDNIEFKKIPRVKGFKMNEIVPLHSPFLMGHPMTKSVYETPKITAAEKSFKPPKNKYKVVRR
–	binds	binds	Recombinant His-tagged SRP14 (natural protein, S. cerevisiae, UniProt P38985 1-146, looked up, SRP14 of the yeast signal recognition particle; subcloned into the NdeI and XhoI sites of pET22b; source: E. coli Rosetta (DE3), pET22b, purified (Ni-NTA)) MANTGCLSPGAFLSKVPEFFQTANEKHITVRLTAKRLIEHDPVEGNLEFDSTNHPDYDVSKKASEISVSSRSDREYPLLIRMSYGSHDKKTKCSTVVKASELDQFWQEYSSVFKGGMQNLIKKKKKKSKNGTISKTGKKNKVAKKN
